{"source": "patent US20230365956A1", "about": "(SYSTIMMUNE, published 2023)", "key": {"[1]": {"molecular_target": "T1, SARS-CoV-2 RBD variant Beta (K417N, E484K, N501Y) (Sino Biological) (SARS-CoV-2, UniProt P0DTC2 319-541)", "T1 construct": "domain: RBD", "assay": "BLI, avidity format: biotinylated RBD on SA sensor, binder in solution"}, "[2]": {"molecular_target": "T2, SARS-CoV-2 RBD variant Gamma (K417T, E484K, N501Y) (Sino Biological) (SARS-CoV-2, UniProt P0DTC2 319-541)", "T2 construct": "domain: RBD", "assay": "BLI, avidity format: biotinylated RBD on SA sensor, binder in solution"}, "[3]": {"molecular_target": "T3, SARS-CoV-2 RBD, wild type (Sino Biological) (SARS-CoV-2, UniProt P0DTC2 319-541)", "T3 construct": "domain: RBD", "assay": "BLI, avidity format: biotinylated RBD on SA sensor, binder in solution"}, "[4]": {"molecular_target": "T4, SARS-CoV-2 RBD variant Kappa (L452R, E484Q) (Sino Biological) (SARS-CoV-2, UniProt P0DTC2 319-541)", "T4 construct": "domain: RBD", "assay": "BLI, avidity format: biotinylated RBD on SA sensor, binder in solution"}, "[5]": {"molecular_target": "T5, SARS-CoV-2 RBD variant Delta (L452R, T478K) (Sino Biological) (SARS-CoV-2, UniProt P0DTC2 319-541)", "T5 construct": "domain: RBD", "assay": "BLI, avidity format: biotinylated RBD on SA sensor, binder in solution"}, "[6]": {"molecular_target": "T6, SARS-CoV-2 RBD variant Alpha (N501Y) (Sino Biological) (SARS-CoV-2, UniProt P0DTC2 319-541)", "T6 construct": "domain: RBD", "assay": "BLI, avidity format: biotinylated RBD on SA sensor, binder in solution"}, "[7]": {"molecular_target": "T7, SARS-CoV-2 RBD variant Lambda (L452Q, F490S) (Sino Biological) (SARS-CoV-2, UniProt P0DTC2 319-541)", "T7 construct": "domain: RBD", "assay": "BLI, avidity format: biotinylated RBD on SA sensor, binder in solution"}, "[8]": {"molecular_target": "T1, SARS-CoV-2 RBD variant Beta (K417N, …)", "assay": "BLI, avidity format: response at highest analyte concentration"}, "[9]": {"molecular_target": "T2, SARS-CoV-2 RBD variant Gamma (K417T, …)", "assay": "BLI, avidity format: response at highest analyte concentration"}, "[10]": {"molecular_target": "T3, SARS-CoV-2 RBD, wild type (Sino …)", "assay": "BLI, avidity format: response at highest analyte concentration"}, "[11]": {"molecular_target": "T4, SARS-CoV-2 RBD variant Kappa (L452R, …)", "assay": "BLI, avidity format: response at highest analyte concentration"}, "[12]": {"molecular_target": "T5, SARS-CoV-2 RBD variant Delta (L452R, …)", "assay": "BLI, avidity format: response at highest analyte concentration"}, "[13]": {"molecular_target": "T6, SARS-CoV-2 RBD variant Alpha (N501Y) …", "assay": "BLI, avidity format: response at highest analyte concentration"}, "[14]": {"molecular_target": "T7, SARS-CoV-2 RBD variant Lambda (L452Q, …)", "assay": "BLI, avidity format: response at highest analyte concentration"}, "[15]": {"molecular_target": "T1, SARS-CoV-2 RBD variant Beta (K417N, …)", "assay": "BLI, affinity format: binder on AHC sensor, RBD in solution"}, "[16]": {"molecular_target": "T2, SARS-CoV-2 RBD variant Gamma (K417T, …)", "assay": "BLI, affinity format: binder on AHC sensor, RBD in solution"}, "[17]": {"molecular_target": "T3, SARS-CoV-2 RBD, wild type (Sino …)", "assay": "BLI, affinity format: binder on AHC sensor, RBD in solution"}, "[18]": {"molecular_target": "T4, SARS-CoV-2 RBD variant Kappa (L452R, …)", "assay": "BLI, affinity format: binder on AHC sensor, RBD in solution"}, "[19]": {"molecular_target": "T5, SARS-CoV-2 RBD variant Delta (L452R, …)", "assay": "BLI, affinity format: binder on AHC sensor, RBD in solution"}, "[20]": {"molecular_target": "T6, SARS-CoV-2 RBD variant Alpha (N501Y) …", "assay": "BLI, affinity format: binder on AHC sensor, RBD in solution"}, "[21]": {"molecular_target": "T7, SARS-CoV-2 RBD variant Lambda (L452Q, …)", "assay": "BLI, affinity format: binder on AHC sensor, RBD in solution"}, "[22]": {"molecular_target": "T1, SARS-CoV-2 RBD variant Beta (K417N, …)", "assay": "BLI, affinity format: response at highest analyte concentration"}, "[23]": {"molecular_target": "T2, SARS-CoV-2 RBD variant Gamma (K417T, …)", "assay": "BLI, affinity format: response at highest analyte concentration"}, "[24]": {"molecular_target": "T3, SARS-CoV-2 RBD, wild type (Sino …)", "assay": "BLI, affinity format: response at highest analyte concentration"}, "[25]": {"molecular_target": "T4, SARS-CoV-2 RBD variant Kappa (L452R, …)", "assay": "BLI, affinity format: response at highest analyte concentration"}, "[26]": {"molecular_target": "T5, SARS-CoV-2 RBD variant Delta (L452R, …)", "assay": "BLI, affinity format: response at highest analyte concentration"}, "[27]": {"molecular_target": "T6, SARS-CoV-2 RBD variant Alpha (N501Y) …", "assay": "BLI, affinity format: response at highest analyte concentration"}, "[28]": {"molecular_target": "T7, SARS-CoV-2 RBD variant Lambda (L452Q, …)", "assay": "BLI, affinity format: response at highest analyte concentration"}}, "data": [{"binder": "Tixagevimab (antibody, V domains shown) VH: QMQLVQSGPEVKKPGTSVKVSCKASGFTFMSSAVQWVRQARGQRLEWIGWIVIGSGNTNYAQKFQERVTITRDMSTSTAYMELSSLRSEDTAVYYCAAPYCSSISCNDGFDIWGQGTMVTVSS VL: not shown", "values": [{"measurement": "Kd", "setting": "[1]", "value": "< 0.001", "unit": "nM"}, {"measurement": "koff", "setting": "[1]", "value": "< 1e-07", "unit": "s⁻¹"}, {"measurement": "kon", "setting": "[1]", "value": 440000, "unit": "M⁻¹ s⁻¹"}, {"measurement": "Kd", "setting": "[2]", "value": "< 0.001", "unit": "nM"}, {"measurement": "koff", "setting": "[2]", "value": "< 1e-07", "unit": "s⁻¹"}, {"measurement": "kon", "setting": "[2]", "value": 376000, "unit": "M⁻¹ s⁻¹"}, {"measurement": "Kd", "setting": "[3]", "value": 0.0221, "unit": "nM"}, {"measurement": "koff", "setting": "[3]", "value": "7.4e-06", "unit": "s⁻¹"}, {"measurement": "kon", "setting": "[3]", "value": 335000, "unit": "M⁻¹ s⁻¹"}, {"measurement": "Kd", "setting": "[4]", "value": "< 0.001", "unit": "nM"}, {"measurement": "koff", "setting": "[4]", "value": "< 1e-07", "unit": "s⁻¹"}, {"measurement": "kon", "setting": "[4]", "value": 416000, "unit": "M⁻¹ s⁻¹"}, {"measurement": "Kd", "setting": "[5]", "value": 0.0303, "unit": "nM"}, {"measurement": "koff", "setting": "[5]", "value": "1.28e-05", "unit": "s⁻¹"}, {"measurement": "kon", "setting": "[5]", "value": 422000, "unit": "M⁻¹ s⁻¹"}, {"measurement": "Kd", "setting": "[6]", "value": "< 0.001", "unit": "nM"}, {"measurement": "koff", "setting": "[6]", "value": "< 1e-07", "unit": "s⁻¹"}, {"measurement": "kon", "setting": "[6]", "value": 447000, "unit": "M⁻¹ s⁻¹"}, {"measurement": "Kd", "setting": "[7]", "value": "< 0.001", "unit": "nM"}, {"measurement": "koff", "setting": "[7]", "value": "< 1e-07", "unit": "s⁻¹"}, {"measurement": "kon", "setting": "[7]", "value": 362000, "unit": "M⁻¹ s⁻¹"}, {"measurement": "Response", "setting": "[8]", "value": 1.14, "unit": "nm shift"}, {"measurement": "Response", "setting": "[9]", "value": 1.58, "unit": "nm shift"}, {"measurement": "Response", "setting": "[10]", "value": 1.7, "unit": "nm shift"}, {"measurement": "Response", "setting": "[11]", "value": 1.54, "unit": "nm shift"}, {"measurement": "Response", "setting": "[12]", "value": 1.3, "unit": "nm shift"}, {"measurement": "Response", "setting": "[13]", "value": 1.35, "unit": "nm shift"}, {"measurement": "Response", "setting": "[14]", "value": 1.76, "unit": "nm shift"}, {"measurement": "Kd", "setting": "[15]", "value": 3.24, "unit": "nM"}, {"measurement": "koff", "setting": "[15]", "value": 0.00318, "unit": "s⁻¹"}, {"measurement": "kon", "setting": "[15]", "value": 981000, "unit": "M⁻¹ s⁻¹"}, {"measurement": "Kd", "setting": "[16]", "value": 5.83, "unit": "nM"}, {"measurement": "koff", "setting": "[16]", "value": 0.00484, "unit": "s⁻¹"}, {"measurement": "kon", "setting": "[16]", "value": 830000, "unit": "M⁻¹ s⁻¹"}, {"measurement": "Kd", "setting": "[17]", "value": 3.63, "unit": "nM"}, {"measurement": "koff", "setting": "[17]", "value": 0.00406, "unit": "s⁻¹"}, {"measurement": "kon", "setting": "[17]", "value": "1.12e+06", "unit": "M⁻¹ s⁻¹"}, {"measurement": "Kd", "setting": "[18]", "value": 5.21, "unit": "nM"}, {"measurement": "koff", "setting": "[18]", "value": 0.00469, "unit": "s⁻¹"}, {"measurement": "kon", "setting": "[18]", "value": 900000, "unit": "M⁻¹ s⁻¹"}, {"measurement": "Kd", "setting": "[19]", "value": 3.83, "unit": "nM"}, {"measurement": "koff", "setting": "[19]", "value": 0.0043, "unit": "s⁻¹"}, {"measurement": "kon", "setting": "[19]", "value": "1.12e+06", "unit": "M⁻¹ s⁻¹"}, {"measurement": "Kd", "setting": "[20]", "value": 3.17, "unit": "nM"}, {"measurement": "koff", "setting": "[20]", "value": 0.0026, "unit": "s⁻¹"}, {"measurement": "kon", "setting": "[20]", "value": 821000, "unit": "M⁻¹ s⁻¹"}, {"measurement": "Kd", "setting": "[21]", "value": 4.31, "unit": "nM"}, {"measurement": "koff", "setting": "[21]", "value": 0.00337, "unit": "s⁻¹"}, {"measurement": "kon", "setting": "[21]", "value": 782000, "unit": "M⁻¹ s⁻¹"}, {"measurement": "Response", "setting": "[22]", "value": 0.46, "unit": "nm shift"}, {"measurement": "Response", "setting": "[23]", "value": 0.474, "unit": "nm shift"}, {"measurement": "Response", "setting": "[24]", "value": 0.477, "unit": "nm shift"}, {"measurement": "Response", "setting": "[25]", "value": 0.472, "unit": "nm shift"}, {"measurement": "Response", "setting": "[26]", "value": 0.513, "unit": "nm shift"}, {"measurement": "Response", "setting": "[27]", "value": 0.552, "unit": "nm shift"}, {"measurement": "Response", "setting": "[28]", "value": 0.411, "unit": "nm shift"}]}]}
